The target in experiment [1] is IBV neuraminidase from B/Malaysia/2506/2004 (Victoria) (Influenza B virus B/Malaysia/2506/2004). The experiment can be described thus: SPR (Biacore), NA on anti-Avi chip, 1:1 model; NA code BNA-7.
Experiment [2] concerns the target A/N1 Vietnam/1203/2004 (Influenza A virus). The experiment can be described thus: SPR (Biacore), NA on anti-Avi chip, 1:1 model; NA code NA-3.
Experiment [3] addresses N2 A/Hong_Kong/2671/2019 (82-469) (Influenza A virus). The experiment can be described thus: SPR (Biacore), NA on anti-Avi chip, 1:1 model; NA code NA-18 (+glyc245).
Experiment [4] concerns the target B/Perth/211/2011 (Influenza B virus). The experiment can be described thus: SPR (Biacore), NA on anti-Avi chip, 1:1 model; NA code BNA-2.
Experiment [5] deals with B/Massachusetts/02/2012(Yamagata) (Influenza B virus). In words: SPR (Biacore), NA on anti-Avi chip, 1:1 model; NA code BNA-3.
In experiment [6] the target is N2 neuraminidase from H3N2 A/Tanzania/205/2010 (Influenza A virus A/Tanzania/205/2010 (H3N2)).
Experiment [7] concerns the target N2 neuraminidase from A/South Australia/34/2019 (Influenza A virus A/South Australia/34/2019). The experiment can be described thus: SPR (Biacore), NA on anti-Avi chip, 1:1 model; NA code NA-17, 82-469 (+glyc245).
Experiment [8] deals with B/Brisbane/602008 or 33/2008 (Victoria) (Influenza B virus). In words: SPR (Biacore), NA on anti-Avi chip, 1:1 model; NA code BNA-6.
The target in experiment [9] is N2 A/Switzerland/8060/2017 (82-469) (Influenza A virus). In words: SPR (Biacore), NA on anti-Avi chip, 1:1 model; NA code NA-16 (+glyc245).
Experiment [10] deals with N9 Hong Kong/56/2015 (Influenza A virus). In words: SPR (Biacore), NA on anti-Avi chip, 1:1 model; NA code N9.
In experiment [11] the target is N9 NA (FIGS. 96A-96C). The experiment can be described thus: Bio-Layer Interferometry (BLI); printed as kdis.
Experiment [12] addresses N9 NA (FIGS. 96A-96C). In words: Bio-Layer Interferometry (BLI).
Experiment [13] addresses N9 NA (FIGS. 96A-96C). The experiment can be described thus: Bio-Layer Interferometry (BLI); printed as ka.
Experiment [14] addresses N2 neuraminidase from A/South Australia/34/2019 (Influenza A virus A/South Australia/34/2019). The experiment can be described thus: SPR; NA-17. Further details: unit not given beside the values.
The target in experiment [15] is N2 neuraminidase from H3N2 A/Tanzania/205/2010 (Influenza A virus A/Tanzania/205/2010 (H3N2)). In words: SPR, 1:1 binding; NA-5 "-glyc245".
The target of experiment [16] is N2 A/Hong_Kong/2671/2019 (82-469) (Influenza A virus). The experiment can be described thus: SPR, 1:1 binding; NA-18 "+glyc245".
Experiment [17] has the same target. In words: SPR; NA-18. The arrangement: unit not given beside the values.
In experiment [18] the target is N2 neuraminidase from A/South Australia/34/2019 (Influenza A virus A/South Australia/34/2019). In words: SPR, 1:1 binding; NA-17 "+glyc245".
Experiment [19] deals with N2 neuraminidase from H3N2 A/Tanzania/205/2010 (Influenza A virus A/Tanzania/205/2010 (H3N2)). The experiment can be described thus: SPR; NA-5. Further details: unit not given beside the values.

Numbering of substitutions follows the chain as printed.

B1: FNI9-v4.1 (antibody, V domains shown)
VH: QVHLVQSGAEVKEPGSSVTVSCKASGGSFSNQAISWVRQAPGQGLEWMGGIFPISGTPTSAQRFQGRVTFTADESTTTVYMDLSSLRSDDTAVYYCARAGSDYFNRDLGWENYYFASWGQGTLVTVSS
VL: EIVMTQSPATLSLSSGERATLSCRASRSVSSNLAWYQQKPGQAPRLLIYDASTRATGFSARFAGSGSGTEFTLTISSLQSEDSAIYYCQQYNNWPPWTFGQGTKVEIK
Regarding B1, the fold-change in affinity compared to FNI9-v1.1 in [1] was determined as 1.44; in [2] it was 1.06; in experiment [3], 1.85; in experiment [4], 1.48; in experiment [5] it was 1.24; in [6] it was 1.76. The fold-change in affinity compared to FNI9-v1.1 turned out to be 1.3 in [7], 0.78 in experiment [8], 1.06 in [9] and 1.31 in experiment [10].

B2: FNI9-v8.1 (antibody, V domains shown)
VH: B1 VH with S28T, S30N
VL: B1 VL
B2: the fold-change in affinity compared to FNI9-v1.1 was 1.35 in [1]; 1.98 in experiment [2]; 0.4 in experiment [3]; 1.03 in experiment [4]; 1.17 in experiment [5]; 0.98 in [6]. The fold-change in affinity compared to FNI9-v1.1 was 1.2 in experiment [7], 0.92 in experiment [8], 0.98 in [9] and 1.1 in experiment [10]. Also, the koff in [11] was < 1e-07 s⁻¹. Also, in [12], the Kd was < 0.001 nM. In addition, the kon in experiment [13] amounted to 463000 M⁻¹ s⁻¹.

B3: Fab FNI9-v8.1 (Fab, V domains shown)
VH: B1 VH with S28T, S30N
VL: B1 VL
Turning to B3, the KD compared to v1.1 is 0.78 in experiment [14], 0.83 in [17] and 0.78 in experiment [19]. Moreover, the Kd in [15] turned out to be 2.57 nM; in experiment [16], 8.64 nM; in experiment [18] it was 99.5 nM.

B4: Fab FNI9-v4.1 (Fab, V domains shown)
VH: B1 VH
VL: B1 VL
For the molecule B4, the results for the KD compared to v1.1 in [14], in experiment [17] and in experiment [19] were 1.04, 1.91 and 1.63, respectively. In addition, the dissociation constant Kd in experiment [15] stood at 5.35 nM; in experiment [16], 19.9 nM; in experiment [18], 133 nM.

B5: FNI9-v9.1 (antibody, V domains shown)
VH: B1 VH with S30N, P58A, F70I
VL: B1 VL
In the case of B5, the fold-change in affinity compared to FNI9-v1.1 is 1.53 in experiment [1]; 0.93 in [2]; 1.15 in experiment [3]; 1.59 in [4]; 0.92 in [5]; 0.81 in [6]. For the same molecule, the fold-change in affinity compared to FNI9-v1.1 worked out at 2.99 in [7], 0.81 in experiment [8], 0.93 in [9] and 8.43 in experiment [10]. Besides, the koff in [11] is 8.66e-05 s⁻¹. Moreover, the dissociation constant Kd in experiment [12] amounted to 0.19 nM. The molecule further returned an on-rate (kon) in experiment [13] of 456000 M⁻¹ s⁻¹.

These data come from US20260184814A1, “BROADLY NE[…] INFLUENZA NEURAMINIDASE” (priority 2022, published 2026).
